The source of these data is patent publication US20130216544A1 (GEMOAB MONOCLONALS, published 2013).

Substitutions are numbered along the chain they refer to.

T1: bacterially produced recombinant murine La protein (rmLa) (murine, UniProt P32067 1-415)
T1 construct: also called prokaryote-produced murine La protein
T1 sequence (looked up): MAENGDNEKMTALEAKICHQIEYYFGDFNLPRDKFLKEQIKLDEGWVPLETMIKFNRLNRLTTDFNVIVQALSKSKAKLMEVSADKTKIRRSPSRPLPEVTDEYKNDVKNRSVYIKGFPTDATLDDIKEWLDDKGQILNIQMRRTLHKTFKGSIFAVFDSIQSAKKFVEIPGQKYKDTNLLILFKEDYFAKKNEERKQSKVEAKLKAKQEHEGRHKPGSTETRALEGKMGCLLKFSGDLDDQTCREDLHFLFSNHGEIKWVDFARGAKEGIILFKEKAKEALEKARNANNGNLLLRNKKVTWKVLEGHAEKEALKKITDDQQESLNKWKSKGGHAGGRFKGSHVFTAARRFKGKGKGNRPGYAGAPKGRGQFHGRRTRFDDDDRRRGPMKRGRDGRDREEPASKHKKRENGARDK

T2: recombinant human La protein (rhLa), SEQ ID No. 1 with His tag (human, UniProt P05455 1-408)
T2 construct: Also used to decorate the surface of 3T3 and HEK 293T PSCA cells; also called rhLa protein; His 6hLa protein; not shown: His tag
T2 sequence: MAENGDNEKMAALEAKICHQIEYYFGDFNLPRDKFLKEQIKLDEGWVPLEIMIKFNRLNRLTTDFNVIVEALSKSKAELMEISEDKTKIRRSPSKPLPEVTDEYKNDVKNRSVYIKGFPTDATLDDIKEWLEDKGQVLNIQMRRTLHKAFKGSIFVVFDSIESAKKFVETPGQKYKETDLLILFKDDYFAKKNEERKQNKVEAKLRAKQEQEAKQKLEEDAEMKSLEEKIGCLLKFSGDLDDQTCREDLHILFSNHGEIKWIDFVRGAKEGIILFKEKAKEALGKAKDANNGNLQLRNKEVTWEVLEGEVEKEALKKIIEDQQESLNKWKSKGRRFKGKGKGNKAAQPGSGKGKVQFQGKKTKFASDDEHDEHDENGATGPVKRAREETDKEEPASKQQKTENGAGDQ

T3: eukaryotic murine La protein (mLa) (murine, UniProt P32067 1-415)
T3 construct: In total extracts or fixed cells; also called endogenous mLa protein; eukaryote-produced murine La protein
T3 sequence (looked up): T1 sequence (looked up)

B1: anti-La monoclonal antibody 2F9 (antibody, IgG1, V domains shown)
VH: EVQLQESGPGILQPSQTLSLTCSFSGFSLSTSGMGVSWIRQPSGKGLEWLAHIYWDDDKGYNPSLKSRLTISKDTSRNQVFLKITSVDTADTATYYCARGDVEFDYWGQGTTLTVSS
VL: DIVLTQSTASLAVSLGQRATISCRASESVDSYGNSFMHWYQQKPGQPPKLLIYRASNLESGIPARFSGSGSRTDFTLTINPVEADDVATYYCQQSNEDPPTFGSGTKLEIK
B2: anti-La monoclonal antibody 312B (antibody, IgG1, V domains shown)
VH: QVKLQESGAELMKPGSSVKFSCKAAGYTFTDYWIEWLKQRPGHGLEWIGEILPGSVSIKYNEKFKGKATFTADTSSNTAYMQLSSLTSEDSAVYYCARSRSIYDGYFYYWGQGTTLTVSS
VL: DIVMTQSTASLSASVGETVTITCRASENIYTYLAWYQQKQGKSPQLLVYNAKTLAEGVPSRFSGSGSGTQFSLRINSLQPEDFGSYYCQHHYGTPYTFGGGTKLEIK
B3: anti-La monoclonal antibody 27E (antibody, IgG2b, V domains shown)
VH: VQLQESGAELARPGASVKLSCKASGYSFRSYGINWVKQRTGQGLEWIGEIYPGSGTTFYNEKFRGKATLTADKSSSTAYMQLKSLTSEDSAVYFCARHGGYPFYFDYWGQGTTLTVSS
VL: DIVMTQSPAIMSASPGEKVTISCSASSSVSYMYWYQQKPGSSPKPWIYRTSNLASGVPARFSGSGSGTSYSLTISSMEAEDAATYYCQQYHSYPRTFGGGTKLEIKR
B4: anti-La monoclonal antibody 32A (antibody, IgG1, V domains shown)
VH: VQLQQSGAELARPGASVKLSCKASGYTFTTYGLTWVKQRTGQGLEWIGEIFPGSGTTFYNEKFNDKATLTADKSSSTAYMQLTSLTSEDSAVYFCARYSNYPYYFDYWGQGTTLTVSS
VL: B3 VL with D1Q, M4L, A9T, A59D
B5: anti-La monoclonal antibody 22A (antibody, IgG1, V domains shown)
VH: QVKLEESGPELVKPGAPVKISCKTSGYTFTNYYIYWVKQRPGQGLEWIGYIYPGNGGTAYNQKFKDKATLTADNPSNTAYMQLSSLTSEDSAVYLCARRGALGYYFDYWGQGTTLTVSS
VL: QIVLTQSPAIMSASPGEKVTMTCSASSSVSYMYWYQQKSGTSPKRWIYDTSKLASGVPARFSGSGSGTSYSLTISSMEAEDAATYYCQQWSSNPQFGTGTKLEVKR
B6: anti-La monoclonal antibody 7B6 (antibody, V domains shown)
VH: VKLQESGGGLVQPGRPMKLSCVASGFTFSDFWMNWVRQSPEKGLEWVAQIRNKPNNYETYYSDSLKGRFTISRDDSKSSVYLQMNNLRPEDMGIYYCTLGNSWFAYWGQGTLVTVS
VL: DIVITQSPSSLAVSAGEKVTMSCRSSQSLLDSRTRKNYLAWYQQKPGQSPKLLIYWASTRESGVPDRFTGSGSGTDFTLTISNVQAEDLAVYYCKQSYNLPTFGGGTKLEI
notes: Used as hybridoma supernatant or mAb; also called mAk 7B6; anti-La 7B6
B7: anti-La monoclonal antibody 5B9 (antibody, IgG2a, V domains shown)
VH: VQLEESGAELVKPGASVKLSCKASGYAFTHYYIYWIKQRPGQGLEWIGGVNPSNGGTHFNEKFKSKATLTVDKSSSTAYMQLSSLTSEDSAVYYCTRSEYDYGLGFAYWGQGTLVTVSA
VL: IVLTQTTSSLAVSAGEKVTMSCKSSQSLLNSRTPKNYLAWYQQKPGQSPKLLIYWASTRKSGVPDRFTGSGSGTDFTLTISSVQAEDLAVYYCKQSYNLLTFGAGTKLELKR
notes: also called anti-La-5B9
B8: anti-La monoclonal antibody 24BG7 (antibody, IgG1, V domains shown)
VH: QVQLQQSGAELARPGASVKLSCKASGYSLTNYGISWVKQRTGQGLEWIGEIYRGSGNSYYNEKFKGKASLTADKSSSTAYMQLSSLTSEDSAVYFCARGGLSFAYWGQGTLVTVSA
VL: QIVLTQSPAIMSASPGEKVTMTCSASSSVTYMHWYQQKSGTSPKRWIYDTSKLASGVPARFSGSGSGTSYSLTISTMEAEDAATYYCQQWISNPPTFGGGTKLEIKR

For one experiment, the target named is T1, bacterially produced recombinant murine …. Description: immunoblot, bacterially produced rmLa. On the technique in general: A western blot detects proteins with antibodies after separation by electrophoresis.
In the case of B1, the binding result is “binds”.

B2: the binding result is “binds”.

As for B3, the binding result is “binds”.

Regarding B4, the binding result was “no binding”.

In the case of B5, the binding result is “no binding”.

The next experiment concerns the target T2, recombinant human La protein (rhLa), …. The experiment in a line: method and form of the antigen not stated.
Take B6: the Kd (as a rule, a measure of binding affinity in units of concentration) was roughly 0.1 nM.

Turning to B7, the Kd is roughly 0.1 nM.

Turning to B2, the Kd is roughly 0.1 nM.

In the case of B3, the Kd is roughly 0.1 nM.

In the case of B4, the Kd is roughly 0.1 nM.

As to B8, the Kd is roughly 0.1 nM.

Take B5: the Kd was roughly 0.1 nM.

In the next experiment the target is T3, eukaryotic murine La protein (mLa). Description: immunoblot, 3T3 total extract.
As to B2, the binding result is “binds”.

Take B3: the binding result is “binds”.

Turning to B4, the binding result is given as “no binding”.

B5: the binding result is listed as “no binding”.
